Measurements from article PMC11429203 (Biomimetics, 2024).

B1: ACSAGLPHVLTPEAGATGASCA (Trimer-pep) (peptide)
peptide: ACSAGLPHVLTPEAGATGASCA
notes: Newly designed fusion peptide of 22 residues; also called fusion trimer peptide; source: synthetic peptide, custom-ordered from GenScript
B2: ACSAG (A-pep) (peptide)
peptide: ACSAG
notes: Unconjugated peptide (no DOX, no fluorescein) in the SPR and antibody-staining experiments; also called ACSAG peptide; source: synthetic peptide, custom-ordered from GenScript

Molecular target: T1, human FGFR2 protein (His-tag) residue 403-822 (human, UniProt P21802-3 403-822)
T1 construct: fibroblast growth factor receptor 2 (FGFR2), human, residues 403-822 (cytoplasmic part with the kinase domain); docking used residues 461-763 of PDB 7OZY, another construct; also called FGFR2 kinase domain; FGFR2 protein kinase domain; source: bought: Thermo Fisher Scientific
T1 sequence (P21802 402-821): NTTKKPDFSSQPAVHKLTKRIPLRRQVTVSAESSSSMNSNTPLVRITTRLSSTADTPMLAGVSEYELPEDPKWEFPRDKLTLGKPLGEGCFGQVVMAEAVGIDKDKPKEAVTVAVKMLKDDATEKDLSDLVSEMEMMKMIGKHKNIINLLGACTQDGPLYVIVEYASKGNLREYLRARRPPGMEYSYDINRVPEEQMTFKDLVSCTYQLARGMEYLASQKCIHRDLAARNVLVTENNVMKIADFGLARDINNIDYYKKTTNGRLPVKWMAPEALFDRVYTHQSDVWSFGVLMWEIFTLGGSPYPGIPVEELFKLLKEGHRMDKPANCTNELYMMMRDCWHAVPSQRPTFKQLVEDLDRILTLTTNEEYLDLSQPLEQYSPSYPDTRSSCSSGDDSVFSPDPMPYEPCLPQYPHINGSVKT
Assay: SPR; FGFR2 (10 µg/mL) coupled through NHS/EDAC to 11-mercaptoundecanoic acid on gold chips; peptides flowed at 50 nM, 100 nM, 1 µM, 50 µM and 100 µM in 1X PBS, 30 µL/min, 2000 s; KD by non-linear regression, mean of three runs
Settings: both partners purified

| Binder | Kd [µM] |
| --- | --- |
| B1 | 7.53 |
| B2 | 14.1 |
